# Reference: the supplement of paper PMC9112550, “Optimization of the antimicrobial peptide Bac7 by deep mutational scanning” (BMC Biology, 2022)
# System: Escherichia coli TOP10
# Assay: shrunken log2 fold change of peptide-encoding DNA abundance (4.5 h post-induction vs induction); higher = less antimicrobial activity (less host growth inhibition)
# Details: time post-induction: 4.5 h; library: site-saturation at positions 5, 18, 19, 20
# 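Also: peptides expressed intracellularly from a pBAD plasmid library in pooled LB shake-flask culture, induced with 0.3% L-arabinose, DNA abundance read by NGS, three biological replicates, DESeq2 with apeglm shrinkage.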
row,Sequence,shrunken log2 fold change
1,RRIRDRPPRLPRPRPRPAWMPRP,-0.0284
2,RRIRNRPPRLPRPRPRPFQVPRP,-0.134
3,RRIRERPPRLPRPRPRPIVTPRP,-0.158
4,RRIRWRPPRLPRPRPRPTWHPRP,0.0819
5,RRIRERPPRLPRPRPRPEKMPRP,-0.421
6,RRIRPRPPRLPRPRPRPTDPPRP,0.0787
7,RRIRPRPPRLPRPRPRPPYEPRP,-0.145
8,RRIRKRPPRLPRPRPRPIEPPRP,0.0245
9,RRIRPRPPRLPRPRPRPECDPRP,0.392
10,RRIRHRPPRLPRPRPRPTSIPRP,0.0484
11,RRIRVRPPRLPRPRPRPFVNPRP,-0.0619
12,RRIRERPPRLPRPRPRPDHWPRP,0.0945
13,RRIRVRPPRLPRPRPRPMCYPRP,-0.306
14,RRIRGRPPRLPRPRPRPCAMPRP,-0.102
15,RRIRQRPPRLPRPRPRPEGPPRP,0.172
16,RRIRERPPRLPRPRPRPMTVPRP,-0.124
17,RRIRVRPPRLPRPRPRPSCSPRP,-0.338
18,RRIRRRPPRLPRPRPRPYDAPRP,-0.635
19,RRIRIRPPRLPRPRPRPHFIPRP,-0.564
20,RRIRFRPPRLPRPRPRPVIDPRP,-0.225
21,RRIRVRPPRLPRPRPRPVGNPRP,-0.129
22,RRIRCRPPRLPRPRPRPCMHPRP,-0.0569

row,Sequence,shrunken log2 fold change
1,RRIRYRPPRLPRPRPRPWTLPRP,-0.0151
2,RRIRYRPPRLPRPRPRPHANPRP,-0.16
3,RRIRLRPPRLPRPRPRPYPFPRP,-0.137
4,RRIRCRPPRLPRPRPRPYQQPRP,-0.12
5,RRIRFRPPRLPRPRPRPKTRPRP,0.277
6,RRIRTRPPRLPRPRPRPYCLPRP,-0.999
7,RRIRCRPPRLPRPRPRPEYEPRP,-0.108
8,RRIRMRPPRLPRPRPRPMVFPRP,0.0369
9,RRIRRRPPRLPRPRPRPMKRPRP,0.0474
10,RRIRCRPPRLPRPRPRPGRMPRP,0.141
11,RRIRPRPPRLPRPRPRPKFTPRP,-0.141
12,RRIRPRPPRLPRPRPRPSNQPRP,-0.45
13,RRIRNRPPRLPRPRPRPCVVPRP,-0.0224
14,RRIRYRPPRLPRPRPRPQVEPRP,-0.218
15,RRIRKRPPRLPRPRPRPMYHPRP,-0.0356
16,RRIRARPPRLPRPRPRPWKPPRP,4.26e-05
17,RRIRFRPPRLPRPRPRPDNGPRP,-0.13
18,RRIRQRPPRLPRPRPRPPCYPRP,-0.0902
19,RRIRDRPPRLPRPRPRPLDNPRP,-0.0187
20,RRIRSRPPRLPRPRPRPPGGPRP,0.724
21,RRIRTRPPRLPRPRPRPYFYPRP,-0.842
22,RRIRIRPPRLPRPRPRPPEMPRP,-0.291

row,Sequence,shrunken log2 fold change
1,RRIRLRPPRLPRPRPRPMIQPRP,-0.139
2,RRIRTRPPRLPRPRPRPIHTPRP,-0.371
3,RRIRCRPPRLPRPRPRPHPDPRP,-0.0728
4,RRIRKRPPRLPRPRPRPSWAPRP,0.186
5,RRIRFRPPRLPRPRPRPNAHPRP,0.0459
6,RRIRIRPPRLPRPRPRPRCRPRP,-0.164
7,RRIRLRPPRLPRPRPRPSLHPRP,-0.471
8,RRIRERPPRLPRPRPRPDWKPRP,-0.0141
9,RRIRHRPPRLPRPRPRPAYVPRP,-0.102
10,RRIRWRPPRLPRPRPRPLLEPRP,0.216
11,RRIRNRPPRLPRPRPRPCKAPRP,-0.1
12,RRIRDRPPRLPRPRPRPICHPRP,0.139
13,RRIRNRPPRLPRPRPRPGPWPRP,0.0802
14,RRIRIRPPRLPRPRPRPWMTPRP,-0.53
15,RRIRERPPRLPRPRPRPPSRPRP,0.577
16,RRIRCRPPRLPRPRPRPWDCPRP,-0.469
17,RRIRDRPPRLPRPRPRPRMDPRP,-0.0354
18,RRIRWRPPRLPRPRPRPMGDPRP,0.676
19,RRIRIRPPRLPRPRPRPYSWPRP,-0.264
20,RRIRHRPPRLPRPRPRPPDSPRP,0.139
21,RRIRFRPPRLPRPRPRPRSYPRP,-0.268
22,RRIRTRPPRLPRPRPRPRENPRP,0.277

row,Sequence,shrunken log2 fold change
1,RRIRVRPPRLPRPRPRPWQAPRP,-0.0138
2,RRIRWRPPRLPRPRPRPTSDPRP,-0.0119
3,RRIRIRPPRLPRPRPRPDNGPRP,-0.375
4,RRIRARPPRLPRPRPRPECWPRP,1.97
5,RRIRLRPPRLPRPRPRPDEFPRP,0.0159
6,RRIRARPPRLPRPRPRPEVDPRP,0.935
7,RRIRLRPPRLPRPRPRPHRYPRP,0.00601
8,RRIRGRPPRLPRPRPRPQFCPRP,0.719
9,RRIRWRPPRLPRPRPRPELTPRP,0.772
10,RRIRERPPRLPRPRPRPGEEPRP,0.175
11,RRIRTRPPRLPRPRPRPRYFPRP,-0.429
12,RRIRLRPPRLPRPRPRPEWNPRP,-0.083
13,RRIRARPPRLPRPRPRPLIYPRP,0.0475
14,RRIRQRPPRLPRPRPRPMEDPRP,-0.00192
15,RRIRIRPPRLPRPRPRPRQWPRP,0.159
16,RRIRIRPPRLPRPRPRPISCPRP,-0.0154
17,RRIRCRPPRLPRPRPRPWQRPRP,0.109
18,RRIRGRPPRLPRPRPRPATKPRP,0.649
19,RRIRRRPPRLPRPRPRPQINPRP,0.0135
20,RRIRQRPPRLPRPRPRPERWPRP,0.251
21,RRIRCRPPRLPRPRPRPDGVPRP,0.125
22,RRIRMRPPRLPRPRPRPAQVPRP,-0.0213

row,Sequence,shrunken log2 fold change
1,RRIRSRPPRLPRPRPRPMHGPRP,0.102
2,RRIRDRPPRLPRPRPRPAEQPRP,0.0426
3,RRIRSRPPRLPRPRPRPGNYPRP,-0.0556
4,RRIRLRPPRLPRPRPRPYYTPRP,-0.76
5,RRIRVRPPRLPRPRPRPCMVPRP,-0.614
6,RRIRFRPPRLPRPRPRPYRQPRP,-0.477
7,RRIRGRPPRLPRPRPRPGYWPRP,1.88
8,RRIRGRPPRLPRPRPRPQLTPRP,0.644
9,RRIRARPPRLPRPRPRPRSWPRP,0.533
10,RRIRRRPPRLPRPRPRPGWEPRP,0.393
11,RRIRYRPPRLPRPRPRPALIPRP,-0.273
12,RRIRQRPPRLPRPRPRPKMVPRP,-0.0201
13,RRIRPRPPRLPRPRPRPAAWPRP,0.377
14,RRIRGRPPRLPRPRPRPNMFPRP,0.351
15,RRIRHRPPRLPRPRPRPADYPRP,-0.291
16,RRIRLRPPRLPRPRPRPTVAPRP,0.0307
17,RRIRERPPRLPRPRPRPDCMPRP,-0.255
18,RRIRGRPPRLPRPRPRPVYLPRP,-0.33
19,RRIRSRPPRLPRPRPRPKEGPRP,-0.0287
20,RRIRERPPRLPRPRPRPFADPRP,-0.192
21,RRIRQRPPRLPRPRPRPKEKPRP,0.00902
